Laboratory results from the Immune Epitope Database (IEDB).

Columns and labels:
HLA-B*35:01 = assay: IEDB peptide-MHC binding, purified MHC/competitive/radioactivity; filed as Kd, often an IC50 or EC50 that approximates it; ≥ and ≤ were set here for values at or beyond the usual limits of such assays
HLA-B*53:01 = assay: as above
HLA-B*07:02 = assay: as above
HLA-B*54:01 = assay: as above
HLA-B*51:01 = assay: as above
HLA-A*68:02 = assay: as above
HLA-A*02:06 = assay: as above
HLA-A*02:02 = assay: as above
HLA-A*03:01 = assay: as above; conditions: source organism: Vaccinia virus Copenhagen
HLA-A*31:01 = assay: as above; conditions: source organism: Vaccinia virus Copenhagen
HLA-A*33:01 = assay: as above; conditions: source organism: Vaccinia virus Copenhagen
HLA-A*02:03 = assay: as above
HLA-A*68:01 = assay: as above; conditions: source organism: Vaccinia virus Copenhagen
HLA-A*11:01 = assay: as above; conditions: source organism: Vaccinia virus Copenhagen
HLA-A*02:01 = assay: IEDB peptide-MHC binding, purified MHC/competitive/fluorescence; filed as Kd, often an IC50 or EC50 that approximates it; ≥ and ≤ were set here for values at or beyond the usual limits of such assays; conditions: source organism: Variola virus
HLA-B*08:01 = assay: IEDB peptide-MHC binding, purified MHC/competitive/radioactivity; filed as Kd, often an IC50 or EC50 that approximates it; ≥ and ≤ were set here for values at or beyond the usual limits of such assays
HLA-B*15:01 = assay: as above
HLA-B*44:02 = assay: as above; conditions: source organism: Dengue virus 4 Philippines/H241/1956
[1] = source organism: SARS coronavirus Tor2
[2] = source organism: Mammarenavirus brazilense
[3] = source organism: Dengue virus 4 Philippines/H241/1956
[4] = source organism: Vaccinia virus Copenhagen
[5] = source organism: Vaccinia virus WR
[6] = source organism: Lassa virus Josiah
[7] = source organism: Mammarenavirus lassaense
[8] = source organism: Dengue virus 2 Jamaica/1409/1983
[9] = source organism: Dengue virus 1 Brazil/97-11/1997
[10] = source organism: Dengue virus 3 Martinique/1243/1999
[11] = source organism: Triticum aestivum

APATVCGPKL
Kd (HLA-B*35:01; [1]): ≥ 69900 nM | Kd (HLA-B*53:01; [1]): ≥ 50000 nM | Kd (HLA-B*07:02; [1]): 30.4 nM | Kd (HLA-B*54:01; [1]): ≥ 69900 nM | Kd (HLA-B*51:01; [1]): 7070 nM

APFMSDLQF
Kd (HLA-B*35:01; [2]): 7.55 nM | Kd (HLA-B*53:01; [2]): 31.9 nM | Kd (HLA-B*07:02; [2]): 148 nM | Kd (HLA-B*54:01; [2]): ≥ 36300 nM | Kd (HLA-B*51:01; [2]): ≥ 39300 nM

EIASLPTYL
Kd (HLA-A*68:02; [3]): 7.91 nM

ELEKTRRKL
Kd (HLA-A*02:06; source organism: Homo sapiens): ≥ 45200 nM | Kd (HLA-A*68:02; source organism: Homo sapiens): 6990 nM

ELNDRFANYI
Kd (HLA-A*68:02; source organism: Homo sapiens): 11.6 nM | Kd (HLA-A*02:02; source organism: Homo sapiens): 37.6 nM

FLTSVINRV
Kd (HLA-B*35:01; [4]): 19000 nM | Kd (HLA-A*03:01): ≥ 78000 nM | Kd (HLA-B*53:01; [4]): ≥ 61000 nM | Kd (HLA-B*07:02; [4]): ≥ 77500 nM | Kd (HLA-B*54:01; [4]): 904 nM | Kd (HLA-A*31:01): ≥ 77900 nM | Kd (HLA-B*51:01; [4]): ≥ 37200 nM | Kd (HLA-A*33:01): ≥ 77700 nM | Kd (HLA-A*02:03; [4]): 5.63 nM | Kd (HLA-A*68:01): 9600 nM | Kd (HLA-A*02:02; [4]): 1.66 nM | Kd (HLA-A*11:01): ≥ 77900 nM | Kd (HLA-A*02:01): 3.5 nM

FPANINDKQI
Kd (HLA-B*35:01; [5]): 384 nM | Kd (HLA-B*53:01; [5]): 8.77 nM | Kd (HLA-B*07:02; [5]): 468 nM | Kd (HLA-B*54:01; [5]): 13.8 nM | Kd (HLA-B*51:01; [5]): 145 nM

FPLCANGQVF
Kd (HLA-B*35:01; [1]): 1.84 nM | Kd (HLA-B*53:01; [1]): 1.94 nM | Kd (HLA-B*07:02; [1]): 87.1 nM | Kd (HLA-B*54:01; [1]): 358 nM | Kd (HLA-B*51:01; [1]): 10.6 nM

GIRPRFLSQ
Kd (HLA-B*08:01; [4]): 221 nM

IISTFHLSI
Kd (HLA-A*02:06; [6]): 264 nM | Kd (HLA-A*68:02; [6]): 652 nM | Kd (HLA-A*02:03; [6]): 13.9 nM | Kd (HLA-A*02:02; [6]): 236 nM

IMAVGLVSLL
Kd (HLA-B*08:01; [3]): 863 nM

IPDELIDVL
Kd (HLA-B*35:01; [5]): 256 nM | Kd (HLA-B*53:01; [5]): 458 nM | Kd (HLA-B*07:02; [5]): 373 nM | Kd (HLA-B*54:01; [5]): 12300 nM | Kd (HLA-B*51:01; [5]): 2180 nM

IPFNVVTAM
Kd (HLA-B*35:01; [7]): 5.25 nM | Kd (HLA-B*53:01; [7]): 73.9 nM | Kd (HLA-B*07:02; [7]): 18.5 nM | Kd (HLA-B*54:01; [7]): 504 nM | Kd (HLA-B*51:01; [7]): 4230 nM

ITASILLWYA
Kd (HLA-A*02:06; [8]): 1.98 nM | Kd (HLA-A*68:02; [8]): 12.4 nM

KPESRPFDLI
Kd (HLA-B*35:01; [5]): ≥ 69900 nM | Kd (HLA-B*53:01; [5]): 18600 nM | Kd (HLA-B*07:02; [5]): 1380 nM | Kd (HLA-B*54:01; [5]): 18500 nM | Kd (HLA-B*51:01; [5]): ≥ 69600 nM

LLKPRCNPA
Kd (HLA-B*08:01; [5]): 1.16 nM | Kd (HLA-B*15:01; [5]): 20.6 nM

LPDDFMGCVL
Kd (HLA-B*35:01; [1]): 353 nM | Kd (HLA-B*53:01; [1]): 499 nM | Kd (HLA-B*07:02; [1]): 105 nM | Kd (HLA-B*54:01; [1]): 5490 nM | Kd (HLA-B*51:01; [1]): 98.4 nM

LPVNVAFEL
Kd (HLA-B*35:01; [1]): 1.89 nM | Kd (HLA-B*53:01; [1]): 10.4 nM | Kd (HLA-B*54:01; [1]): 420 nM | Kd (HLA-B*51:01; [1]): 1.14 nM

MEKLRIKGM
Kd (HLA-B*44:02): 1260 nM | Kd (HLA-B*08:01; [3]): 20.8 nM

MPEKRNVVVV
Kd (HLA-B*35:01; [5]): 4350 nM | Kd (HLA-B*53:01; [5]): 13200 nM | Kd (HLA-B*07:02; [5]): 194 nM | Kd (HLA-B*54:01; [5]): 40.6 nM | Kd (HLA-B*51:01; [5]): 2090 nM

MPILTLTRAL
Kd (HLA-B*35:01; [1]): 13.7 nM | Kd (HLA-B*53:01; [1]): 202 nM | Kd (HLA-B*07:02; [1]): 9.46 nM | Kd (HLA-B*54:01; [1]): 85.4 nM | Kd (HLA-B*51:01; [1]): 8.24 nM

MPVETLFGSY
Kd (HLA-B*35:01; [5]): 3.28 nM | Kd (HLA-B*53:01; [5]): 2.28 nM | Kd (HLA-B*07:02; [5]): ≥ 44000 nM | Kd (HLA-B*54:01; [5]): 106 nM | Kd (HLA-B*51:01; [5]): ≥ 69600 nM

MQRKHGGML
Kd (HLA-B*08:01; [9]): 170 nM | Kd (HLA-B*15:01; [9]): 100 nM

MSIISFFPF
Kd (HLA-B*08:01; [5]): 857 nM | Kd (HLA-B*15:01; [5]): 0.168 nM

NLYDHALMSI
Kd (HLA-A*02:06; [6]): 23.1 nM | Kd (HLA-A*68:02; [6]): 75 nM | Kd (HLA-A*02:03; [6]): 0.543 nM | Kd (HLA-A*02:02; [6]): 1.75 nM

NRMEIFLVL
Kd (HLA-B*08:01; [4]): 4.85 nM

NSTHEMYWV
Kd (HLA-A*68:02; [8]): 92.1 nM

PPFTQHLLNI
Kd (HLA-B*35:01; [5]): ≥ 69900 nM | Kd (HLA-B*53:01; [5]): ≥ 20900 nM | Kd (HLA-B*07:02; [5]): ≥ 69600 nM | Kd (HLA-B*54:01; [5]): ≥ 69900 nM | Kd (HLA-B*51:01; [5]): 12500 nM

RLFTKVKPLL
Kd (HLA-A*02:06; source organism: Homo sapiens): 4040 nM | Kd (HLA-A*68:02; source organism: Homo sapiens): 13600 nM | Kd (HLA-A*02:03; source organism: Homo sapiens): 96 nM

SFKFRPGSL
Kd (HLA-B*08:01; [5]): 2.98 nM

SIFIRMLIL
Kd (HLA-B*08:01; [4]): 10.1 nM

SPNLAWPLIV
Kd (HLA-B*35:01; [1]): 887 nM | Kd (HLA-B*53:01; [1]): 1660 nM | Kd (HLA-B*07:02; [1]): 123 nM | Kd (HLA-B*54:01; [1]): 556 nM | Kd (HLA-B*51:01; [1]): 2790 nM

SRISRFANL
Kd (HLA-B*08:01; [5]): 19.6 nM

TASLVMLLV
Kd (HLA-A*68:02; source organism: Dengue virus 4 Dominica/814669/1981): 82.5 nM

TSAWVMYGT
Kd (HLA-A*68:02; [3]): 1.7 nM

TVVVGDIIGV
Kd (HLA-A*02:06; [10]): 2.44 nM | Kd (HLA-A*68:02; [10]): 1.87 nM

VSRQEKGKSL
Kd (HLA-B*08:01; source organism: Dengue virus 2 Peru/IQT2913/1996): 967 nM

YAKSKRMAE
Kd (HLA-B*08:01; [5]): 31.1 nM

YPSGQGSF
Kd (HLA-B*35:01; [11]): 4880 nM | Kd (HLA-B*53:01; [11]): 5150 nM | Kd (HLA-B*07:02; [11]): 11100 nM | Kd (HLA-B*54:01; [11]): 13300 nM | Kd (HLA-B*51:01; [11]): 998 nM
